The values that follow come from doi:10.1101/2024.03.08.584019.

For the assay, the target named is GNNV-P R276A (Dragon grouper (Epinephelus lanceolatus) nervous necrosis virus). The assay is described as follows: AUC.

A word on the stoichiometry N: it is the number of molecules, sites or subunits per partner or assembly. Consider GNNV-P R276A (domain or fragment), for which the stoichiometry N was determined as 3.
